Experiment [1] addresses T1, circularly permuted human TfR apical domain (human).
T1 construct: TfR residues 326-379 stand N-terminal to 194-296, loop 297-325 deleted; also called huTfR Apical Domain
T1 chain: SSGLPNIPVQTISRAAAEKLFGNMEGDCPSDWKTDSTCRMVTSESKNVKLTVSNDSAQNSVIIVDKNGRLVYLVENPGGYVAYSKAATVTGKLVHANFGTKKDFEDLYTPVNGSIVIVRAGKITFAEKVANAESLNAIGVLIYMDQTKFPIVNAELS
Nature of the experiment: SPR, supernatant, anti-Fab capture. The procedure:
(§1) Clones were expressed in HEK293 cells. Supernatants were captured for SPR by GE Healthcare anti-human Fab capture kit and the affinity to human and cyno TfR apical domain was measured (Table 30). The clones in Table 30 were bivalent and each TfR-binding Fc polypeptide also contained P329G and LALA mutations.
A general note: Surface plasmon resonance follows binding to a sensor surface in real time, without labels.

Experiment [2] deals with T2, circularly permuted cyno TfR apical domain (cynomolgus monkey).
T2 construct: same design as the human construct; also called cyTfR Apical Domain; cynomolgus TfR apical domain
T2 chain: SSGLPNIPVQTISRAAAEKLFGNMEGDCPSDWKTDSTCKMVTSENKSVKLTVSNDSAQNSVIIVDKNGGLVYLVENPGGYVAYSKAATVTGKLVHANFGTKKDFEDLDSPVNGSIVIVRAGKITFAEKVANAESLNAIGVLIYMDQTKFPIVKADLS
The experiment can be described thus: SPR, supernatant, anti-Fab capture. The procedure:
as §1

B1: 42.8.93 (Fc fusion)
chain: APEAAGGPSVFLFPPKPKDTLMISRTPEVTCVVVDVSHEDPEVKFNWYVDGVEVHNAKTKPREEQYNSTYRVVSVLTVLHQDWLNGKEYKCKVSNKALGAPIEKTISKAKGQPREPQVYTLPPSRDELTKNQVSLTCLVKGFYPSDIAVEWFSEASKESNYKTTPPVLDSDGSFFLYSKLTVDKSRWQQGNLFACEVMHEALHNHYTYKLLSLSPGK
notes: bivalent; P329G+LALA
B1: the figures for the Kd in experiment [1] and in experiment [2] were 5000 nM and 17.6 µM, respectively.

B2: 42.8.160 (Fc fusion)
chain: APEAAGGPSVFLFPPKPKDTLMISRTPEVTCVVVDVSHEDPEVKFNWYVDGVEVHNAKTKPREEQYNSTYRVVSVLTVLHQDWLNGKEYKCKVSNKALGAPIEKTISKAKGQPREPQVYTLPPSRDELTKNQVSLTCLVKGFYPSDIAVEWFYDAQKLNNYKTTPPVLDSDGSFFLYSKLTVDKSRWQQGNLFACEVMHEALHNHYTYKLLSLSPGK
notes: bivalent; P329G+LALA
B2: the Kd (usually the constant that tells how readily two partners part at equilibrium) in experiment [1] came to 1050 nM; in experiment [2], 11.6 µM.

B3: 42.8.111 (Fc fusion)
chain: APEAAGGPSVFLFPPKPKDTLMISRTPEVTCVVVDVSHEDPEVKFNWYVDGVEVHNAKTKPREEQYNSTYRVVSVLTVLHQDWLNGKEYKCKVSNKALGAPIEKTISKAKGQPREPQVYTLPPSRDELTKNQVSLTCLVKGFYPSDIAVEWFYGGQKESNYKTTPPVLDSDGSFFLYSKLTVDKSRWQQGNLFACEVMHEALHNHYTYKLLSLSPGK
notes: bivalent; P329G+LALA
As to B3, the Kd in experiment [1] was determined as 1880 nM; in experiment [2], 19.1 µM.

B4: 42.8.147 (Fc fusion)
chain: APEAAGGPSVFLFPPKPKDTLMISRTPEVTCVVVDVSHEDPEVKFNWYVDGVEVHNAKTKPREEQYNSTYRVVSVLTVLHQDWLNGKEYKCKVSNKALGAPIEKTISKAKGQPREPQVYTLPPSRDELTKNQVSLTCLVKGFYPSDIAVEWFYDGQKESNYKTTPPVLDSDGSFFLYSKLTVDKSRWQQGNLFACEVMHEALHNHYTYKLLSLSPGK
notes: bivalent; P329G+LALA
Consider B4, for which the equilibrium dissociation constant (Kd) in experiment [1] was determined as 3510 nM; in experiment [2], 8.03 µM.

B5: 42.8.190 (Fc fusion)
chain: APEAAGGPSVFLFPPKPKDTLMISRTPEVTCVVVDVSHEDPEVKFNWYVDGVEVHNAKTKPREEQYNSTYRVVSVLTVLHQDWLNGKEYKCKVSNKALGAPIEKTISKAKGQPREPQVYTLPPSRDELTKNQVSLTCLVKGFYPSDIAVEWFYEGSKLNNYKTTPPVLDSDGSFFLYSKLTVDKSRWQQGNLFACEVMHEALHNHYTYKLLSLSPGK
notes: bivalent; P329G+LALA
For the molecule B5, the Kd in experiment [1] is 1310 nM; in experiment [2], 9.78 µM.

B6: 42.8.180 (Fc fusion)
chain: APEAAGGPSVFLFPPKPKDTLMISRTPEVTCVVVDVSHEDPEVKFNWYVDGVEVHNAKTKPREEQYNSTYRVVSVLTVLHQDWLNGKEYKCKVSNKALGAPIEKTISKAKGQPREPQVYTLPPSRDELTKNQVSLTCLVKGFYPSDIAVEWFYDDSKLSNYKTTPPVLDSDGSFFLYSKLTVDKSRWQQGNLFACEVMHEALHNHYTYKLLSLSPGK
notes: bivalent; P329G+LALA
As for B6, the values for the Kd in experiment [1] and in experiment [2] were 705 nM and 7.91 µM, respectively.

B7: 42.8.122 (Fc fusion)
chain: APEAAGGPSVFLFPPKPKDTLMISRTPEVTCVVVDVSHEDPEVKFNWYVDGVEVHNAKTKPREEQYNSTYRVVSVLTVLHQDWLNGKEYKCKVSNKALGAPIEKTISKAKGQPREPQVYTLPPSRDELTKNQVSLTCLVKGFYPSDIAVEWFYGAQKETNYKTTPPVLDSDGSFFLYSKLTVDKSRWQQGNLFACEVMHEALHNHYTYKLLSLSPGK
notes: bivalent; P329G+LALA
As to B7, the figures for the Kd in experiment [1] and in experiment [2] were 3910 nM and 9.84 µM, respectively.

B8: 42.8.165 (Fc fusion)
chain: APEAAGGPSVFLFPPKPKDTLMISRTPEVTCVVVDVSHEDPEVKFNWYVDGVEVHNAKTKPREEQYNSTYRVVSVLTVLHQDWLNGKEYKCKVSNKALGAPIEKTISKAKGQPREPQVYTLPPSRDELTKNQVSLTCLVKGFYPSDIAVEWFYDASKESNYKTTPPVLDSDGSFFLYSKLTVDKSRWQQGNLFACEVMHEALHNHYTYKLLSLSPGK
notes: bivalent; P329G+LALA
Consider B8, for which the Kd in experiment [1] came out at 1030 nM; in experiment [2] it was 4.46 µM.

B9: 42.8.176 (Fc fusion)
chain: APEAAGGPSVFLFPPKPKDTLMISRTPEVTCVVVDVSHEDPEVKFNWYVDGVEVHNAKTKPREEQYNSTYRVVSVLTVLHQDWLNGKEYKCKVSNKALGAPIEKTISKAKGQPREPQVYTLPPSRDELTKNQVSLTCLVKGFYPSDIAVEWFYDDSKETNYKTTPPVLDSDGSFFLYSKLTVDKSRWQQGNLFACEVMHEALHNHYTYKLLSLSPGK
notes: bivalent; P329G+LALA
Take B9: the Kd in experiment [1] turned out to be 613 nM; in experiment [2], 9.78 µM.

B10: 42.8.164 (Fc fusion)
chain: APEAAGGPSVFLFPPKPKDTLMISRTPEVTCVVVDVSHEDPEVKFNWYVDGVEVHNAKTKPREEQYNSTYRVVSVLTVLHQDWLNGKEYKCKVSNKALGAPIEKTISKAKGQPREPQVYTLPPSRDELTKNQVSLTCLVKGFYPSDIAVEWFYDASKETNYKTTPPVLDSDGSFFLYSKLTVDKSRWQQGNLFACEVMHEALHNHYTYKLLSLSPGK
notes: bivalent; P329G+LALA
As to B10, the Kd in experiment [1] stood at 832 nM; in experiment [2], 7.45 µM.

B11: 42.8.145 (Fc fusion)
chain: APEAAGGPSVFLFPPKPKDTLMISRTPEVTCVVVDVSHEDPEVKFNWYVDGVEVHNAKTKPREEQYNSTYRVVSVLTVLHQDWLNGKEYKCKVSNKALGAPIEKTISKAKGQPREPQVYTLPPSRDELTKNQVSLTCLVKGFYPSDIAVEWFYDGQKENNYKTTPPVLDSDGSFFLYSKLTVDKSRWQQGNLFACEVMHEALHNHYTYKLLSLSPGK
notes: bivalent; P329G+LALA
With B11, the equilibrium dissociation constant (Kd) in experiment [1] stood at 1010 nM; in experiment [2], 11.4 µM.

B12: 42.8.134 (Fc fusion)
chain: APEAAGGPSVFLFPPKPKDTLMISRTPEVTCVVVDVSHEDPEVKFNWYVDGVEVHNAKTKPREEQYNSTYRVVSVLTVLHQDWLNGKEYKCKVSNKALGAPIEKTISKAKGQPREPQVYTLPPSRDELTKNQVSLTCLVKGFYPSDIAVEWFYGDQKETNYKTTPPVLDSDGSFFLYSKLTVDKSRWQQGNLFACEVMHEALHNHYTYKLLSLSPGK
notes: bivalent; P329G+LALA
As to B12, the Kd stood at 1240 nM in experiment [1] and 13.2 µM in experiment [2].

B13: 42.8.140 (Fc fusion)
chain: APEAAGGPSVFLFPPKPKDTLMISRTPEVTCVVVDVSHEDPEVKFNWYVDGVEVHNAKTKPREEQYNSTYRVVSVLTVLHQDWLNGKEYKCKVSNKALGAPIEKTISKAKGQPREPQVYTLPPSRDELTKNQVSLTCLVKGFYPSDIAVEWFYGDSKETNYKTTPPVLDSDGSFFLYSKLTVDKSRWQQGNLFACEVMHEALHNHYTYKLLSLSPGK
notes: bivalent; P329G+LALA
As for B13, the Kd was determined as 664 nM in experiment [1] and 5.23 µM in experiment [2].

B14: 42.8.129 (Fc fusion)
chain: APEAAGGPSVFLFPPKPKDTLMISRTPEVTCVVVDVSHEDPEVKFNWYVDGVEVHNAKTKPREEQYNSTYRVVSVLTVLHQDWLNGKEYKCKVSNKALGAPIEKTISKAKGQPREPQVYTLPPSRDELTKNQVSLTCLVKGFYPSDIAVEWFYGASKESNYKTTPPVLDSDGSFFLYSKLTVDKSRWQQGNLFACEVMHEALHNHYTYKLLSLSPGK
notes: bivalent; P329G+LALA
On to B14, for which the Kd in experiment [1] was determined as 858 nM; in experiment [2], 3.14 µM.

B15: 42.8.161 (Fc fusion)
chain: APEAAGGPSVFLFPPKPKDTLMISRTPEVTCVVVDVSHEDPEVKFNWYVDGVEVHNAKTKPREEQYNSTYRVVSVLTVLHQDWLNGKEYKCKVSNKALGAPIEKTISKAKGQPREPQVYTLPPSRDELTKNQVSLTCLVKGFYPSDIAVEWFYDAQKLTNYKTTPPVLDSDGSFFLYSKLTVDKSRWQQGNLFACEVMHEALHNHYTYKLLSLSPGK
notes: bivalent; P329G+LALA
Take B15: the Kd in experiment [1] was determined as 1140 nM; in experiment [2], 10.5 µM.

B16: 42.8.191 (Fc fusion)
chain: APEAAGGPSVFLFPPKPKDTLMISRTPEVTCVVVDVSHEDPEVKFNWYVDGVEVHNAKTKPREEQYNSTYRVVSVLTVLHQDWLNGKEYKCKVSNKALGAPIEKTISKAKGQPREPQVYTLPPSRDELTKNQVSLTCLVKGFYPSDIAVEWFYEGSKLTNYKTTPPVLDSDGSFFLYSKLTVDKSRWQQGNLFACEVMHEALHNHYTYKLLSLSPGK
notes: bivalent; P329G+LALA
Take B16: the Kd in experiment [1] was 598 nM; in experiment [2] it was 8.14 µM.

B17: 42.8.142 (Fc fusion)
chain: APEAAGGPSVFLFPPKPKDTLMISRTPEVTCVVVDVSHEDPEVKFNWYVDGVEVHNAKTKPREEQYNSTYRVVSVLTVLHQDWLNGKEYKCKVSNKALGAPIEKTISKAKGQPREPQVYTLPPSRDELTKNQVSLTCLVKGFYPSDIAVEWFYGDSKLNNYKTTPPVLDSDGSFFLYSKLTVDKSRWQQGNLFACEVMHEALHNHYTYKLLSLSPGK
notes: bivalent; P329G+LALA
On to B17, for which the Kd stood at 665 nM in experiment [1] and 4.63 µM in experiment [2].

B18: 42.8.170 (Fc fusion)
chain: APEAAGGPSVFLFPPKPKDTLMISRTPEVTCVVVDVSHEDPEVKFNWYVDGVEVHNAKTKPREEQYNSTYRVVSVLTVLHQDWLNGKEYKCKVSNKALGAPIEKTISKAKGQPREPQVYTLPPSRDELTKNQVSLTCLVKGFYPSDIAVEWFYDDQKETNYKTTPPVLDSDGSFFLYSKLTVDKSRWQQGNLFACEVMHEALHNHYTYKLLSLSPGK
notes: bivalent; P329G+LALA
As for B18, the Kd in experiment [1] is 1150 nM; in experiment [2] it was 11.9 µM.

B19: 42.8.186 (Fc fusion)
chain: APEAAGGPSVFLFPPKPKDTLMISRTPEVTCVVVDVSHEDPEVKFNWYVDGVEVHNAKTKPREEQYNSTYRVVSVLTVLHQDWLNGKEYKCKVSNKALGAPIEKTISKAKGQPREPQVYTLPPSRDELTKNQVSLTCLVKGFYPSDIAVEWFYEGQKLSNYKTTPPVLDSDGSFFLYSKLTVDKSRWQQGNLFACEVMHEALHNHYTYKLLSLSPGK
notes: bivalent; P329G+LALA
For B19, the results for the Kd in experiment [1] and in experiment [2] were 2050 nM and 22.2 µM, respectively.

(Values after patent US20250145729A1 (DENALI THERAPEUTICS, published 2025).)
